Measured values from patent US6500934.
Non-standard residues stand in square brackets, D forms with d. No end group written: not given here. Ahx = NCCCCCC(=O)O; βAla = NCCC(=O)O

What was measured:
[1] = target: α-MSH receptor of wild type Xenopus laevis melanophores (Xenopus laevis); test: cell-based or functional assay
[2] = target: bombesin receptor expressed in transfected Xenopus laevis melanophores (plasmid pJG3.6BR); test: cell-based or functional assay

B1: α-MSH-ANT monomer (MPdFRdWFKPV-GGGεAhx-K(20)-βAla) (peptide)
peptide: MP[dF]R[dW]FKPVGGG[Ahx]KKKKKKKKKKKKKKKKKKKK[βAla]
[1]
  IC50 of inhibition of α-MSH (5 nM) mediated pigment dispersion in wild type melanophores: 120 nM

B2: α-MSH dimer (disulfide-linked homodimer of …-GGG-εAhx-K(20)-C-βAla) (peptide)
peptide: SYSMEHFRWGKPVGGG[Ahx]KKKKKKKKKKKKKKKKKKKKC[βAla]
modifications: ends and bridges not checked; also: disulfide-linked homodimer via Cys
[1]
  EC50 (at t=30 min.) of pigment dispersion in wild type melanophores: 72.5 nM
  EC50 of pigment dispersion, fold lower than α-MSH monomer: 5 fold

B3: Bombesin dimer (disulfide-linked homodimer of C-K(20)-εAhx-GGG-…) (peptide)
peptide: CKKKKKKKKKKKKKKKKKKKK[Ahx]GGGQQRLGNQWAVGHLM-NH2
modifications: ends and bridges not checked; also: disulfide-linked homodimer via N-terminal Cys
[2]
  EC50 (t=30 min) of pigment dispersion in melanophores transfected with the bombesin receptor: 23.4 nM
  EC50 of pigment dispersion, fold lower than bombesin monomer: 5 fold
